Experimental findings from PMC5537068, “Endoglucanase activity at a second site in Pyrococcus furiosus triosephosphate isomerase—Promiscuity or compensation for a metabolic handicap?” (FEBS Open Bio, 2017) are described below.

One may read the stoichiometry N as a count of units in the complex or per binding partner.

Data set [1] concerns the molecule itself. As to the kind of experiment: AUC; sedimentation velocity, phosphate buffer; data not shown; told in one sentence together with SDS/PAGE and gel filtration. (In gel filtration, larger molecules generally elute earlier.)
Data set [2] concerns the molecule itself. Nature of the data set: SDS/PAGE (zymogram); 12% SDS/PAGE under standard conditions, gel copolymerised with CM-cellulose; residual oligomers resist SDS and boiling; bands identified as PfuTIM by in-gel digestion and MALDI-TOF MS.
Data set [3] deals with the molecule itself. As to the kind of experiment: SEC; gel filtration chromatography in phosphate buffer.
Data set [4] concerns the molecule itself. Nature of the data set: native gel or EMSA; native PAGE at 5, 7.5, 10, 12.5 and 15% acrylamide with HMW markers, Ferguson plot of molecular weight. (In EMSA bound probe runs differently from free probe, usually more slowly.)
Data set [5] concerns the molecule itself. Nature of the data set: AUC; sedimentation velocity, Tris buffer; data not shown; told in one sentence together with SDS/PAGE and gel filtration.

B1: Pyrococcus furiosus triosephosphate isomerase (PfuTIM) (enzyme, UniProt P62002 1-228, looked up)
chain: MAKLKEPIIAINFKTYIEATGKRALEIAKAAEKVYKETGVTIVVAPQLVDLRMIAESVEIPVFAQHIDPIKPGSHTGHVLPEAVKEAGAVGTLLNHSENRMILADLEAAIRRAEEVGLMTMVCSNNPAVSAAVAALNPDYVAVEPPELIGTGIPVSKAKPEVITNTVELVKKVNPEVKVLCGAGISTGEDVKKAIELGTVGVLLASGVTKAKDPEKAIWDLVSGIIKE
notes: also called TPI; source: E. coli M15[pREP4], purified (Ni-NTA, gel filtration)
Take B1: the “stoichiometry N” value worked out at 3 in data set [1]; 2 in data set [2]; 6 in data set [3]; 8 in data set [4]; 4 in data set [5].
